The values that follow come from patent publication US20240050475A1.

For this assay, the target named is human PRDX4 present on the cell surface of cancer cells (human) (UniProt Q13162). Nature of the assay: flow cytometry on ES-2 cells, control staining. For orientation: A flow cytometer gives signals particle by particle.
UniProt Q13162, sequence (Q13162 38-271 limits assumed): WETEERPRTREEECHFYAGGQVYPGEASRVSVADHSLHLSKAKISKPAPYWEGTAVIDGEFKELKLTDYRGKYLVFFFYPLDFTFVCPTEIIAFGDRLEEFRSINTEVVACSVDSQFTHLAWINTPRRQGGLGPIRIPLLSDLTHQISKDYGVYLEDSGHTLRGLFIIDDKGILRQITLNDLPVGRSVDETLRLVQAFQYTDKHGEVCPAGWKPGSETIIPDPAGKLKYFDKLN

With isotype antibody, the mean (flow cytometry) worked out at 159.
